Test [1] addresses human complement protein C4b (human) (UniProt P0C0L4). Put plainly: ELISA; C3b or C4b (1 µg) immobilised in microtiter wells in PBS pH 7.2; up to 1 µM His-tagged Lig protein in 2% BSA-PBS pH 7.2, 37°C, 1 h; detected with anti-His antibody; apparent Kd = concentration of LigB that gives half-maximal binding. (In general: An ELISA detects its analyte on a solid surface through an enzyme-linked reagent.)

In test [2] the target is human complement protein C3b (human) (UniProt P01024). The description is as above.
For test [3] the target is unchanged. The settings on record: scale: % of complement activity in untreated serum.
Test [4] concerns the target human complement protein C4b (human) (UniProt P0C0L4).

human complement protein C4b (human), sequence (P0C0L4 20-675, chain 1 of 3): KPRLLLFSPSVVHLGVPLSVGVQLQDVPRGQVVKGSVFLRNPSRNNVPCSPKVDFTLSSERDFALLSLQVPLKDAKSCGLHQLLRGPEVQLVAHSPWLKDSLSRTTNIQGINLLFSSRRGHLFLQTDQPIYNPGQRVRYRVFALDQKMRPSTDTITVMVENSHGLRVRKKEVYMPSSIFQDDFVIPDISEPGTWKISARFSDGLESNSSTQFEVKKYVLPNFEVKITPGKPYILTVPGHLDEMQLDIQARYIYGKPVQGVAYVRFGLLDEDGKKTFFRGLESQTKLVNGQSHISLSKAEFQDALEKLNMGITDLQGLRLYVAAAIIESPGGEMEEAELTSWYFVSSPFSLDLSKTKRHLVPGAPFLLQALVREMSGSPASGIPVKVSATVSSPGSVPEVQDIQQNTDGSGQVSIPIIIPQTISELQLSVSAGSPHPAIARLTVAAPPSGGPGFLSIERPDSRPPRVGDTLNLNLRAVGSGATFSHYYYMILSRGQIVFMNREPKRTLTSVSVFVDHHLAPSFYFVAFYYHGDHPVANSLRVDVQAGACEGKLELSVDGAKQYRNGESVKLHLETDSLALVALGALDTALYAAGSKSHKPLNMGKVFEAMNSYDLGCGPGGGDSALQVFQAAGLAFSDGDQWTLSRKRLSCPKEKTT
human complement protein C4b (human), sequence (P0C0L4 757-1446, chain 2 of 3): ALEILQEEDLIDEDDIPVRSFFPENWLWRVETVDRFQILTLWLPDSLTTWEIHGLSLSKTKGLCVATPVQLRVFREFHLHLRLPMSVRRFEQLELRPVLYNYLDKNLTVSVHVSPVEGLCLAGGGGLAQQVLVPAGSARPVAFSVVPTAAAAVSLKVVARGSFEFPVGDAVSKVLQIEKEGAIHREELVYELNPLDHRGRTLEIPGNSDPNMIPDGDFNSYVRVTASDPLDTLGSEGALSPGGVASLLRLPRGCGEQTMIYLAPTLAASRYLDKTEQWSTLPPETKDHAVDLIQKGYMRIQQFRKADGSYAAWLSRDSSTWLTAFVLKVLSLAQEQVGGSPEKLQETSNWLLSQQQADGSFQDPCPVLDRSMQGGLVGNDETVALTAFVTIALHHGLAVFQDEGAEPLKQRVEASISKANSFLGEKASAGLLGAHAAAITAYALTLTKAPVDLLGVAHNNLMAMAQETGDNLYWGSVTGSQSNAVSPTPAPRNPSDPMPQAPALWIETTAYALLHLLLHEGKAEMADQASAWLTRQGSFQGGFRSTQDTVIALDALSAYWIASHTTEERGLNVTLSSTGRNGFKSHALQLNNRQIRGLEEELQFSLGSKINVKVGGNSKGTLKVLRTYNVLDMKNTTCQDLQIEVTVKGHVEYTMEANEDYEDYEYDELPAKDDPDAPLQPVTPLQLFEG
human complement protein C4b (human), sequence (P0C0L4 1454-1744, chain 3 of 3): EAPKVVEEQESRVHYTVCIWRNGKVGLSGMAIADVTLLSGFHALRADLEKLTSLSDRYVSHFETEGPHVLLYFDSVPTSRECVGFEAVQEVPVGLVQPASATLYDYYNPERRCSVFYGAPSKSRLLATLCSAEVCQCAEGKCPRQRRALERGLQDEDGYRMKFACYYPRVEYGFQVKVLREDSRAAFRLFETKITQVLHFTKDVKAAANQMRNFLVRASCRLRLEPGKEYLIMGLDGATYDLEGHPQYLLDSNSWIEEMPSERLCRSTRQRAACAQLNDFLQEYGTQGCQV
human complement protein C3b (human), sequence (P01024 23-667, chain 1 of 2): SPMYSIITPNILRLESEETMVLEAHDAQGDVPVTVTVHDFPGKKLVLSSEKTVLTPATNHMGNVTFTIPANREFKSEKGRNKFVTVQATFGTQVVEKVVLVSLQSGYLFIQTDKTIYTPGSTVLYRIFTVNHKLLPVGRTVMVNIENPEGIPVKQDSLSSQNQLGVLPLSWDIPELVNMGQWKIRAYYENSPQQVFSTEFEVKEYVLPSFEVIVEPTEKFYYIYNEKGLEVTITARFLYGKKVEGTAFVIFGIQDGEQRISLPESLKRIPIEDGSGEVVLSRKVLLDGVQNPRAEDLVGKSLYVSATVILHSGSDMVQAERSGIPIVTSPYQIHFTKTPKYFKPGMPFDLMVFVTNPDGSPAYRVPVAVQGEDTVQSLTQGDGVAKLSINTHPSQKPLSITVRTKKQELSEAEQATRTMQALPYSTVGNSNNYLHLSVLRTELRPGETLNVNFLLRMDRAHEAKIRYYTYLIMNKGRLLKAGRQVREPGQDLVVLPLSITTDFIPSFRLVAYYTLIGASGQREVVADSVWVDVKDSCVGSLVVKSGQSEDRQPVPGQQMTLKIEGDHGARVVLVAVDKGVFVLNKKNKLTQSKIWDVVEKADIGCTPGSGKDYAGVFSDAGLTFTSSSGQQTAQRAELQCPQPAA
human complement protein C3b (human), sequence (P01024 749-1663, chain 2 of 2): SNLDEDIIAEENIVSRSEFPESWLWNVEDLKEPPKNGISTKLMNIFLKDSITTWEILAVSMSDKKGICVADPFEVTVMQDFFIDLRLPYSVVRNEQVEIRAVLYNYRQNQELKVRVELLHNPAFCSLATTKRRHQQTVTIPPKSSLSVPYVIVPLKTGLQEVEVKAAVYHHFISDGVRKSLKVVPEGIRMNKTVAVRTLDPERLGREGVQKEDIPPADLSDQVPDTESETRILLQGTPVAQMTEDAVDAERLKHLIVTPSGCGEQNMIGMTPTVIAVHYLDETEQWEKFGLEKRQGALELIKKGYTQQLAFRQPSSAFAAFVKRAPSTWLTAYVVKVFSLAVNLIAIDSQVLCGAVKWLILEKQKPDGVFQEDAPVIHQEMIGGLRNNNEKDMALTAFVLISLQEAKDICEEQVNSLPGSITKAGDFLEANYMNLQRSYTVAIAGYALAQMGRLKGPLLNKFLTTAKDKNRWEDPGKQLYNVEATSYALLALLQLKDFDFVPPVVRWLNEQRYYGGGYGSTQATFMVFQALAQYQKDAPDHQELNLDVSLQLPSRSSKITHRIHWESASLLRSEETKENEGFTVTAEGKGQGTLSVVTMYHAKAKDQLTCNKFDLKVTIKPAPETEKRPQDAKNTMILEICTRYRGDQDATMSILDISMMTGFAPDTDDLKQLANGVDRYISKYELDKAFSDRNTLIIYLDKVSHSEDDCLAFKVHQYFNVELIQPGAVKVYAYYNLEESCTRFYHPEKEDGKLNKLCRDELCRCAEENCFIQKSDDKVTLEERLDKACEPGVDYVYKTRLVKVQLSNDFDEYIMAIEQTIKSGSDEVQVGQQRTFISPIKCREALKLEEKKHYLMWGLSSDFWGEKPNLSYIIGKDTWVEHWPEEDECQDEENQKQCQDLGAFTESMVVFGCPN

As to “LigB7′-12 (from UniProt C0J1Q6 1-1889) (domain or fragment)”, the Kd in test [1] is 69 nM; in test [2] it was 43 nM.

Consider LigB8-12 (domain or fragment), for which the complement-mediated hemolysis of rabbit erythrocytes (alternative pathway) after preincubation of normal human serum with the protein, as % of complement activity in untreated serum in test [3] was 38.9. Further, the complement-mediated hemolysis of antibody-sensitized sheep erythrocytes (classical pathway) after preincubation of normal human serum with the protein, as % of untreated serum (% of untreated serum) in test [4] amounted to 71.4.

For LigB9-11 (domain or fragment), the complement-mediated hemolysis of rabbit erythrocytes (alternative pathway) after preincubation of normal human serum with the protein, as % of complement activity in untreated serum in test [3] stood at 57.8. Besides, the figures for the Kd in test [1] and in test [2] were 67 nM and 69 nM, respectively. Moreover, the complement-mediated hemolysis of antibody-sensitized sheep erythrocytes (classical pathway) after preincubation of normal human serum with the protein, as % of untreated serum (% of untreated serum) in test [4] turned out to be 64.

For the substance LigB9-12 (domain or fragment), the Kd in test [1] amounted to 57 nM; in test [2], 69 nM.

These data come from PMC3402383.
